The results in this text go back to patent US20240190983A1 (JULIUS MAXIMILIANS UNIVERSIT T W RZBURG, published 2024).

One test deals with T1, Cynomolgus TNFR2 (Macaca fascicularis (cynomolgus monkey), UniProt P20333 26-461 (human entry)).
T1 construct: Expressed on transiently transfected HEK293 cells; also called TNFR2-cyno; monkey TNFR2
T1 chain: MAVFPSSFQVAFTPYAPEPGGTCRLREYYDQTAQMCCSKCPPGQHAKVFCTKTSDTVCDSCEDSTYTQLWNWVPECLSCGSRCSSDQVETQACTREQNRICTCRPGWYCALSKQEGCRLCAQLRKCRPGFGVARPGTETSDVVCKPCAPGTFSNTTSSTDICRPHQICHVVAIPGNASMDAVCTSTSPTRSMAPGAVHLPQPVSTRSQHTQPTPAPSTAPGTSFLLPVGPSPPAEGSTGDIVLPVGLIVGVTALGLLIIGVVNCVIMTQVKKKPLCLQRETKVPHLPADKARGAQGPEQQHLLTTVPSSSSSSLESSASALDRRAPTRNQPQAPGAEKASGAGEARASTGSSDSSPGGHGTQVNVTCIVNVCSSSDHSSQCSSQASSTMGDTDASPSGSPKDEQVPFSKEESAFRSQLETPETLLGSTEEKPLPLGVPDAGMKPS
The experiment in a line: equilibrium binding of VHH-Fc-GpL to cells expressing cynomolgus TNFR2, 37 C; column head Affinity (ng/ml). On the procedure: (§1) Specific binding (open circles) was obtained by subtraction of the non-specific binding values (Hek293 cells—crosses) from the binding values for transfectants expressing human TNFR2 (total binding—closed circles). Specific binding was analyzed with the “nonlinear regression to a one-site specific binding curve” function of the GraphPad Prism5 software.
(§2) The equivalent experiment was also performed using TNFR2 from different species, namely from Mus musculus (mouse), Macaca fascicularis (cynomolgus monkey), and Chlorocebus sabaeus (African green monkey) to study the ability of the VHH regions to bind to TNFR2 from different species. The ability to cross react to TNFR2 from different species can be helpful in allowing the antibodies to be studied in various models before assessment in human patients.

Test [1] concerns the target T2, African green monkey TNFR2 (Chlorocebus sabaeus (African green …)).
T2 construct: whole, on cells
The experiment in a line: equilibrium binding of VHH-Fc-GpL to cells expressing African green monkey TNFR2, 37 C; column head Affinity (ng/ml). On the procedure:
as §1, §2

Test [2] deals with T3, Human TNFR2 (human, UniProt P20333 23-461).
T3 construct: On cells: HeLa-TNFR2, HT1080-Bcl2-TNFR2, transiently transfected HEK293; endogenous on Kym-1 cells; also called huTNFR2; TNFRSF1B
T3 sequence: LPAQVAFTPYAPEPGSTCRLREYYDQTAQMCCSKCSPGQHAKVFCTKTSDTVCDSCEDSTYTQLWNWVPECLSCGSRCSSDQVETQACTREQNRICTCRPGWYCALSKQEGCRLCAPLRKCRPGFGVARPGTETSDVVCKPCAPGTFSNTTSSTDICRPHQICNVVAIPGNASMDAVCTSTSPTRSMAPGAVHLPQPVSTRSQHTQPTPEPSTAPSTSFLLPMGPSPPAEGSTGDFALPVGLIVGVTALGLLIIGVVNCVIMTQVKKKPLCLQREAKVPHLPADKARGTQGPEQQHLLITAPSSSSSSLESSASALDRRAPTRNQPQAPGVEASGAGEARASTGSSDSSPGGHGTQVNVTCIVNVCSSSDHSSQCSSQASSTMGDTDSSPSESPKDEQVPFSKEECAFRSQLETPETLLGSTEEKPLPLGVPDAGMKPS
The experiment in a line: equilibrium binding of VHH-Fc-GpL to cells expressing human TNFR2, 37 °C; HEK293 cells as unspecific binding; one-site fit of specific binding.

In test [3] the target is T3, Human TNFR2. The experiment in a line: equilibrium binding of 3xVHH-Fc-GpL to HEK293 cells expressing human TNFR2 (panel head Hek-293-TNFR2-human), 37 °C.
In test [4] the target is T4, Murine TNFR2 (mouse, UniProt P25119 23-474).
T4 construct: Expressed on transiently transfected HEK293 cells; also called mouse TNFR2; TNFR2(mu)
T4 sequence: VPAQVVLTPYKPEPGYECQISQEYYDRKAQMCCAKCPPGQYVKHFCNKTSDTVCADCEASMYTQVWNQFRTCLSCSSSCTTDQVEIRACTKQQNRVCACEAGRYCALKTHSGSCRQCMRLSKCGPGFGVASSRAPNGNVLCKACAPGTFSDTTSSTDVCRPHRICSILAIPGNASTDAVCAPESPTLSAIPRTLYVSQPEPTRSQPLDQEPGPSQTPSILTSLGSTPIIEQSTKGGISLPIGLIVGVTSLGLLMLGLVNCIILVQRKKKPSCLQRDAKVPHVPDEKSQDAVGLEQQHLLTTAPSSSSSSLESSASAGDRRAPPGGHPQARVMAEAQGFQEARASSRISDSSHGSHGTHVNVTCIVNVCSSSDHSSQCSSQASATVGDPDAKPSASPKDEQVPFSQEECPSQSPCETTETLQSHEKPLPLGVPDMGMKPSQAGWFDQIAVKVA
The experiment in a line: equilibrium binding of 3xVHH-Fc-GpL to HEK293 cells expressing murine TNFR2 (panel head Hek-293-TNFR2-murine), 37 °C.

The target of test [5] is T3, Human TNFR2. The experiment in a line: binding of 3xVHH-Fc-GpL to HEK293 cells transiently transfected with TNFR2; empty-vector cells as unspecific binding.
Test [6] concerns the target T4, Murine TNFR2. The experiment in a line: equilibrium binding of VHH-Fc-GpL to cells expressing mouse TNFR2, 37 C. The method, then:
as §1, §2

Test [7] has as its target T3, Human TNFR2. The experiment in a line: equilibrium binding of the GpL fusion protein to HeLa-TNFR2 cells, 37 °C; unspecific binding on HeLa cells subtracted; cell-bound luciferase. On the procedure: FIG. 11—Binding properties of TNFR2-specific antibodies. (A) Equilibrium binding of the indicated anti-TNFR2 antibody GpL fusion proteins to cell expressed human TNFR2 at 37° C. (B) HeLa-TNFR2 cells were pretreated with the indicated amounts of anti-TNFR2 antibodies or remained untreated. […] Binding of the various constructs to untransfected HeLa cells was analyzed to obtain unspecific binding values.
Affinity of TNFR2-specific antibodies and antibody variants were also evaluated with HeLa cells and HeLa cells stably expressing human TNFR2. HeLa and HeLa-TNFR2 cells were seeded out in 24-well plates. Next day, the cells were challenged with the indicated concentrations of GpL-labelled TNFR2 antibodies for 1 hour at 37° C. To eliminate the unbound antibodies, the cells were washed 10 times with ice-cold PBS. The cells were then scratched and collected in 50 μl of medium (RPMI, 0.5% FCS) and transferred to black 96-well plates for measurement as mentioned above. The specific binding of different TNFR2-specific antibodies/antibody variants was calculated by subtracting the unspecific binding (values obtained from HeLa cells) from total binding (obtained from HeLa-TNFR2). The resulting values were fitted using the non-linear regression analysis option of GraphPad Prism 5.

Changes are numbered by the printed parent chain. In names and notes the source's numbering stands.

B1: VHH:C18-Fc-GpL (Fc fusion)
VHH: DVQLVESGGGSVQTGGSLTLSCAISGSTSERYCMGWFRQAPGREREGVAATSLTGRGAQFYADSVKGRFTISLDDAKNTLYLQMDSLRPDDTAVYYCAADVGFLCGYDSDNDPFYDWGQGTQVTVSS
notes: also called VHH-Fc-GpL variant of C18; not shown: The Fc domain, the C-terminal GpL reporter and the linkers or tags of the VHH-Fc-GpL construct; No entry gives the joined chain or says which Fc variant was used
B1: the Kd stood at 0.05 µg/mL with Cynomolgus TNFR2, 0.06 µg/mL in test [1] and 0.23 µg/mL with Human TNFR2 [2].

B2: 3×VHH:C18-Fc-GpL (Fc fusion)
VHH: B1 VHH
notes: also called 3×VHH-Fc-GpL variant of C18; hexavalent format of C18; not shown: the listing has no entry for the 3xVHH-Fc-GpL format
In the case of B2, the Kd was found to be 0.001 µg/mL in the test with Human TNFR2 [3], 0.18 µg/mL with Murine TNFR2 [4] and 0.006 µg/mL with Human TNFR2 [5].

B3: 3xVHH:C188-Fc-GpL (Fc fusion, not shown: a dimerising Fc or GST; small tags and cut ends)
VHH: B1 VHH with M34L, A99E
notes: also called hexavalent 3×VHH-Fc-GpL construct of C188
On to B3, for which the Kd with Human TNFR2 [3] came out at 0.003 µg/mL; with Murine TNFR2 [4], 0.07 µg/mL; in the test with Human TNFR2 [5], 0.005 µg/mL.

B4: VHH:C36-Fc-GpL (Fc fusion)
VHH: HVQLVESGGGSVQAGGSLRLSCAASGFTFSSYYMSWVRQAPGKGLEWVSAIYSDDSDNYSDSVKGRFTISKDNAKNTLYLQMNSLKPEDTAMYYCAAIRIGTDQYKFWGQGTQVTVSS
notes: also called VHH-Fc-GpL format protein of C36; not shown: The Fc domain, the C-terminal GpL reporter and the linkers or tags of the VHH-Fc-GpL construct; No entry gives the joined chain or says which Fc variant was used
Take B4: the binding result in the test with Murine TNFR2 [6] is “no binding”. The figures for the dissociation constant Kd (in test [1]; with Human TNFR2 [2]) were 0.08 µg/mL and 3.2 µg/mL, respectively.

B5: C29-IgG1(N297A)-LC:GpL (antibody)
light: EVKLVPRQLDYKDDDDKELDVVMTQTPLSLPVSLGDQASISCRASQSLVHSNGNTYLQWYLQKPGQSPKLLIYKVSNRFSGVPDRFSGSGSGTDFTLKISRVEAEDLGVFFCSQSTHVPFTFGSGTKLEIKGSEIKRTVAAPSVFIFPPSDEQLKSGTASVVCLLNNFYPREAKVQWKVDNALQSGNSQESVTEQDSKDSTYSLSSTLTLSKADYEKHKVYACEVTHQGLSSPVTKSFNRGECLEKPTENNEDFNIVAVASNFATTDLDADRGKLPGKKLPLEVLKEMEANARKAGCTRGCLICLSHIKCTPKMKKFIPGRCHTYEGDKESAQGGIGEAIVDIPEIPGFKDLEPMEQFIAQVDLCVDCTTGCLKGLANVQCSDLLKKWLPQRCATFASKIQGQVDKIKGAGGD
heavy: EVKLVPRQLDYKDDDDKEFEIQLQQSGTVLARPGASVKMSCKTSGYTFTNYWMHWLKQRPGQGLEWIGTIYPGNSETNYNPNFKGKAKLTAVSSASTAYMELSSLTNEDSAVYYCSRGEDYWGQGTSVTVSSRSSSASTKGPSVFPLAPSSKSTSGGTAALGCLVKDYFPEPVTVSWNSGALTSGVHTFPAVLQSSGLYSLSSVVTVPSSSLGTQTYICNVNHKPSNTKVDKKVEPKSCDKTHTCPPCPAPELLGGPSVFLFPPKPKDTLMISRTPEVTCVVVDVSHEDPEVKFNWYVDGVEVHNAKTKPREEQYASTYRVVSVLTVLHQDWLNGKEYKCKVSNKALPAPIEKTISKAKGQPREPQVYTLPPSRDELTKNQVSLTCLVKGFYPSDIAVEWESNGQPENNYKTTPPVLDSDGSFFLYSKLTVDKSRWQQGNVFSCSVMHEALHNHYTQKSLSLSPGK
notes: copies: 2 + 2
On to B5, for which, in the test with Human TNFR2 [7], the Bmax came out at 250 kRLU and the Kd is 0.8 µg/mL.

B6: C31-2-IgG1(N297A)-LC:GpL (antibody)
light: EVKLVPRQLDYKDDDDKELQAVVTQESALTTSPGETVTLTCRSSTGAVTTSNYANWVQEKPDHLFTGLIGGTNNRAPGVPARFSGSVIGDKAALTITGAQTEDEAIYFCALWYSNHWVFGGGTKLTVLGGSEIKRTVAAPSVFIFPPSDEQLKSGTASVVCLLNNFYPREAKVQWKVDNALQSGNSQESVTEQDSKDSTYSLSSTLTLSKADYEKHKVYACEVTHQGLSSPVTKSFNRGECLEKPTENNEDFNIVAVASNFATTDLDADRGKLPGKKLPLEVLKEMEANARKAGCTRGCLICLSHIKCTPKMKKFIPGRCHTYEGDKESAQGGIGEAIVDIPEIPGFKDLEPMEQFIAQVDLCVDCTTGCLKGLANVQCSDLLKKWLPQRCATFASKIQGQVDKIKGAGGD
heavy: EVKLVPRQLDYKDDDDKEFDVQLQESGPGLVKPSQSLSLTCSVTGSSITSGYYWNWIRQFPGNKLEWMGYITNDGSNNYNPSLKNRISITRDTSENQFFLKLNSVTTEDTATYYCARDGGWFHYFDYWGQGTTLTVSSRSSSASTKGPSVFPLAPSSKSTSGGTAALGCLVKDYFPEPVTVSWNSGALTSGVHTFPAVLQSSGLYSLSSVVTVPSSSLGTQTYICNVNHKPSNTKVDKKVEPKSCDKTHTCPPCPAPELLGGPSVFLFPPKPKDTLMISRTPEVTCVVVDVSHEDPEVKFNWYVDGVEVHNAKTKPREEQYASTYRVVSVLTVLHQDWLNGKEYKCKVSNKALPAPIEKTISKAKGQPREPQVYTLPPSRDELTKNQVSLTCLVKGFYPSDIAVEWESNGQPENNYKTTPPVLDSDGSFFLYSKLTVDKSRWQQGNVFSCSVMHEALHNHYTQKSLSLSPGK
notes: copies: 2 + 2
For B6, in the test with Human TNFR2 [7], the Bmax amounted to 890 kRLU and binding was put at a Kd of 2.19 µg/mL.

B7: 3xVHH:C238-Fc-GpL (Fc fusion, not shown: a dimerising Fc or GST; small tags and cut ends)
VHH: QVQLVESGGGSVQPGGSLTLSCVDSGSAYLSYCMAWFRQAPGKEREGVAAIYYGGDSYYADSVKGRFTISQDHAKNTMYLQMNSLKPEDTAVYYCAADVGFICGYDSDNDPPNDWGQGTQVTVSS
notes: also called hexavalent 3×VHH-Fc-GpL construct of C238
For B7, the Kd was found to be 0.006 µg/mL with Human TNFR2 [3], 0.1 µg/mL in the test with Murine TNFR2 [4] and 0.008 µg/mL with Human TNFR2 [5].

B8: 3×VHH:C74-Fc-GpL (Fc fusion)
VHH: DVQLVESGGGLVQSGGSLRLSCAASGFPFSSSDMTWVRQTSGSVFEWVSDINPDGQNTRYADSVKGRFIISRDNAKSTLYLQMDSLKTDDTAVYYCAADPGSSGGSLSYWGKGTLVTVSS
notes: also called 3×VHH-Fc-GpL variant of C74; hexavalent format for C74; not shown: the listing has no entry for the 3xVHH-Fc-GpL format
With B8, the Kd with Human TNFR2 [3] was 0.001 µg/mL; in the test with Human TNFR2 [5] it was 0.035 µg/mL.

B9: VHH:C118-Fc-GpL (Fc fusion)
VHH: QVQLVESGGGSVQAGGSLRLSCAASGHTYRSNCMGWFRQAPGKEREGVAAMYTGTDWKYYADSVKGRFTISQDKAKNTLYLVMNNLKPDDTGVYYCAADFGFICGYDSDDDPYDAWGQGTQVTVSS
notes: also called VHH-Fc-GpL format protein of C118; not shown: The Fc domain, the C-terminal GpL reporter and the linkers or tags of the VHH-Fc-GpL construct; No entry gives the joined chain or says which Fc variant was used
B9: the binding result with Murine TNFR2 [6] was “no binding”. Moreover, the Kd is 0.1 µg/mL in test [1] and 0.13 µg/mL in the test with Human TNFR2 [2].

B10: (68/69)-IgG1(N297A)-LC:GpL (antibody)
light: EVKLVPRQLDYKDDDDKELDVQMTQSPSSLSASVGDRVTITCKASQDINKFIAWYQQKPGKAPKLLIHYTSTLQPGIPSRFSGSGSGRDYTFTISSLQPEDIATYYCLQYGNLWTFGGGTKVEIKGSEIKRTVAAPSVFIFPPSDEQLKSGTASVVCLLNNFYPREAKVQWKVDNALQSGNSQESVTEQDSKDSTYSLSSTLTLSKADYEKHKVYACEVTHQGLSSPVTKSFNRGECLEKPTENNEDFNIVAVASNFATTDLDADRGKLPGKKLPLEVLKEMEANARKAGCTRGCLICLSHIKCTPKMKKFIPGRCHTYEGDKESAQGGIGEAIVDIPEIPGFKDLEPMEQFIAQVDLCVDCTTGCLKGLANVQCSDLLKKWLPQRCATFASKIQGQVDKIKGAGGD
heavy: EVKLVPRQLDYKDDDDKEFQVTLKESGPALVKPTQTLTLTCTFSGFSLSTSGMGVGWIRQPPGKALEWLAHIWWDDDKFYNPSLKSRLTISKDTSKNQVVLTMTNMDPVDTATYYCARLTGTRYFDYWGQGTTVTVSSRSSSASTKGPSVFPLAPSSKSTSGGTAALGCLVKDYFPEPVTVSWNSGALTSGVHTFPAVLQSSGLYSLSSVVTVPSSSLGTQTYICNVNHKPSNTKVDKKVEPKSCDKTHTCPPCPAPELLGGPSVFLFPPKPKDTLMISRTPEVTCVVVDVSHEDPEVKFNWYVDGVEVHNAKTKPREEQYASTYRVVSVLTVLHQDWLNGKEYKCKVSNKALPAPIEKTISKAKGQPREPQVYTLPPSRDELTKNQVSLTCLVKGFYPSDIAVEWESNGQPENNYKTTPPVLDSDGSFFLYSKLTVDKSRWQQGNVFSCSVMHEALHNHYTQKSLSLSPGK
notes: Gaussia princeps luciferase (GpL) fused to the light chain; copies: 2 + 2
In the test with Human TNFR2 [7], B10 displayed a Bmax of 1130 kRLU and a Kd of 0.044 µg/mL.

Broadly, the Kd is the concentration at which binding is half-saturated.
